Experimental data: article PMC11633098

How the values were obtained:
[1] = molecular target: human plasmin (human)
[2] = molecular target: human plasmin (human); remark: listed apart in the source
[3] = molecular target: human plasmin (human); assay: ELISA; inhibition assay: Plg or Pln coated at 0.5 µg/well; 100 nM rSesY with 0 to 10 mM tranexamic acid or arginine; anti-His HRP detection; RT, 1 h
[4] = molecular target: human plasminogen (human) (UniProt P00747); assay: as above
[5] = molecular target: human plasmin (human); assay: ELISA; solid-phase binding: Plg, Pln or BSA immobilised on 4HBX plates; increasing concentrations (1 nM to 4 µM) of recombinant protein; anti-His HRP detection; one-site specific binding fit; apparent KD
[6] = molecular target: human plasminogen (human) (UniProt P00747); assay: as above

UniProt P00747, sequence (P00747 20-810): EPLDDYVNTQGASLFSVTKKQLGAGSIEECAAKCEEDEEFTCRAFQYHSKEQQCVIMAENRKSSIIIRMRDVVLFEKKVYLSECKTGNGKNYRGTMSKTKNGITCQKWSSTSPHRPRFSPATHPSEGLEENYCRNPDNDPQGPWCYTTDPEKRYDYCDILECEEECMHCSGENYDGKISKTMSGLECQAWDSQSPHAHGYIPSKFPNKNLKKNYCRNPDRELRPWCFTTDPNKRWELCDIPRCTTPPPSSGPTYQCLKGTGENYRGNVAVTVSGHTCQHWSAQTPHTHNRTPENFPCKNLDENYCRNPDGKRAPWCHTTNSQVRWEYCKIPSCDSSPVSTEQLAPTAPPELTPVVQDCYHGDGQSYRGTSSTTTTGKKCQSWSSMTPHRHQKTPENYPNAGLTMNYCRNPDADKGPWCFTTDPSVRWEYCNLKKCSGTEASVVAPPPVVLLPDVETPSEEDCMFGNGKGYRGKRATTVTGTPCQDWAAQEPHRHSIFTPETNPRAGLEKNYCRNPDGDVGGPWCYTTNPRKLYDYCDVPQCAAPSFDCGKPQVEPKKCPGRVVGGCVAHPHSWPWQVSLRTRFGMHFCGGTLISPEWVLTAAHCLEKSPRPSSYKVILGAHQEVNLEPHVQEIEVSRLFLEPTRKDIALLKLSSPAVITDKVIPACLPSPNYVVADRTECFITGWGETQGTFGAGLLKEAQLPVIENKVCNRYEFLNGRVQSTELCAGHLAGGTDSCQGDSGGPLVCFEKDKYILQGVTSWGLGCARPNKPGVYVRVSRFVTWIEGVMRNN

Row | Substance | Vmax of Pln on S-2251 without and with rSesY (0 to 10 µM) [1] [nM/min] | fibrin gel remaining at 6 h and 12 h after digestion of pre-formed fibrin gel by Pln with 1, 2.5, 5 and 10 µM rSesY (38% to over 80%) [2] [%] | fibrin gel remaining at 12 h after digestion of pre-formed fibrin gel by Pln with 5 µM rSesY (controls 10%–25%) [2] [%] | percent reduction of binding by 2 mM tranexamic acid [3] [%] | percent reduction of binding by 2 mM tranexamic acid [4] [%] | Kd [5] [µM] | Kd [6] [µM]
1 | recombinant SesY_(32–341) (S. epidermidis surface protein Y) (domain or fragment) | 1.8 | > 80 | 80 | > 85 | > 85 | 0.016 | 0.21
2 | recombinant fibronectin-binding protein B N2N3 domain from S. aureus (from UniProt A0A0H2XKG3 37-940) (domain or fragment) |  |  |  |  |  |  | 0.03
